Values of other authors as cited in publication PMC1617126.

Molecular target: protective antigen (PA) (Bacillus anthracis) (UniProt P13423)

For ANTXR2 I domain (from UniProt P58335), the Kd is listed as 960 nM.
